Experiments:
[1] = tested on: muscle-invasive bladder cancer; test: NIAGARA phase III study: survival efficacy endpoints (EFS, OS, MFS, DSS, DFS); assay type: in vivo, human
Text: The NIAGARA (NCT03732677) study described herein is a phase III, randomized, open-label, multi-center global study of durvalumab in combination with neoadjuvant gemcitabine+cisplatin before cystectomy (surgery to remove the bladder) followed by durvalumab as adjuvant monotherapy in patients with histologically or cytologically documented, resectable muscle-invasive bladder cancer and transitional cell carcinoma of the urothelium.
The study enrolled 1530 patients and randomized 1063 of those the patients in a 1:1 ratio to receive durvalumab+Gemcitabine+Cisplatin (D+G+C) combination therapy every three weeks (q3w) (Arm 1) or G+C combination therapy q3w (Arm 2) for 4 cycles of neoadjuvant chemotherapy prior to radical cystectomy. Patients started adjuvant durvalumab or placebo administration following surgery as soon as clinically feasible and within 42-120 days following surgery from surgery. Following radical cystectomy and during adjuvant therapy, patients in Arm 1 received durvalumab monotherapy every 4 weeks (q4w) for 8 additional cycles, and patients in Arm 2 received no adjuvant treatment.
Patients received a combination therapy comprising 1500 mg durvalumab or placebo via intravenous (IV) infusion q3w for up to a maximum of 4 cycles prior to surgery and a platinum therapy consisting of cisplatin and gemcitabine, the dose dependent on renal function. Patients having a creatinine clearance rate of about ≥60 mL/min, were administered cisplatin at a dose of about 70 mg/m^2 on day 1 of each cycle; and (b) gemcitabine at a dose of about 1000 mg/m^2 on days 1 and 8 of each cycle every 3 weeks (q3w) for a total of four cycles. Patients having a creatinine clearance rate of about ≥40 mL/min to <60 mL/min, were administered cisplatin at a dose of about 70 mg/m^2 on day 1 of each cycle; and (b) gemcitabine at a dose of about 1000 mg/m^2 on days 1 and 8 of each cycle every 3 weeks (q3w) for a total of four cycles.
A radical cystectomy was performed as soon as possible after completion of fourth administration of the combination therapy. The radical cystectomy was performed between […] following the last administration of the combination therapy. Male patients underwent radial cytoprostatectomy and urinary diversion along with bilateral pelvic lymph node dissection. Female patients underwent radical cystectomy. Elective hysterectomy and bilateral salpingectomy was optionally performed if no gross evidence of oncologic involvement was noted by the surgeon. Oophorectomy was omitted if clinically indicated. A urinary diversion creation was established via an ileal conduit, ileal neobladder, Indiana Pouch, or as per local practice. Bilateral pelvic lymph node dissection included following template to include the 1) external iliac, 2) obturator, and 3) internal iliac nodes, and 4) common iliac nodes to the level of the ureteric crossing and included a lymph node classified as cN1 at baseline if one was present. Removal of other nodes is per the surgeon's discretion. The boundaries of the template were the circumflex iliac vein and Cloquet's node, laterally by the genitofemoral nerve, medially by the bladder, posteriorly by the obturator fossa, and proximally to the ureter. Radical cystectomy was mandatory study procedure for all patients unless a patient is only able to undergo a partial cystectomy.
(§1) Dual primary efficacy endpoints evaluated in this study were event-free survival (EFS; per blinded independent central review [BICR]) and pathological complete response (pCR; evaluated centrally). Therefore, if either the EFS endpoint or pCR endpoint was achieved, the study was considered a success.
Secondary endpoints included overall survival (OS), and evaluation of the primary outcome in the PD-L1 high subgroup; pharmacokinetics and immunogenicity; patient-reported outcomes; and safety. […]

[2] = tested on: muscle-invasive bladder cancer; test: NIAGARA phase III study: pathological complete response (pCR) at radical cystectomy; assay type: in vivo, human
Experimental: as §1
Primary tumors and sampled lymph nodes were assessed for pathological response to neoadjuvant treatment by central pathology review using recommendations from the IASLC.
pCR efficacy assessment was accomplished by pathological review of radical cystectomy samples. EFS efficacy assessment were assessed by either RECIST 1.1 on imaging scans by pathology on biopsy samples if required.

[3] = NIAGARA phase III study: adverse events and immune-mediated adverse events; assay type: in vivo
Text: Adverse Events (AEs), Serious Adverse Events (SAE), and immune-mediated adverse events (imAE) were collected from the time of the patient signing the informed consent form until follow-up period as completed (90 days after last dose of treatment (Arm 1) or adjuvant phase study visits (Arm 2). Tables 3 and 4 outline the variables collected for adverse events and severe adverse events.
AESIs for durvalumab include but are not limited to events with a potential inflammatory or immune-mediated mechanism and which may require more frequent monitoring and/or interventions such as steroids, immunosuppressants, and/or hormone replacement therapy. These AESIs are closely monitored in clinical studies with durvalumab monotherapy and combination therapy. An imAE is defined as an AESI that is associated with drug exposure, required the use of systemic steroids or other immunosuppressants and/or endocrine therapy for specific endocrine events, is consistent with an immune-mediated MOA, and where there is no clear alternate etiology.
Serologic, immunologic, and histologic (biopsy) data, as appropriate, were used to support an imAE diagnosis. Appropriate efforts were made to rule out neoplastic, infectious, metabolic, toxin, or other etiologic causes of the imAE.
The overall safety profile is consistent with the known safety profile of durvalumab and chemotherapy. The addition of durvalumab to chemotherapy had no detrimental impact on backbone chemotherapy administration. AEs leading to treatment discontinuation in neoadjuvant phase were balanced between the two arms. The number of patients not undergoing radical surgery because of AEs due to neoadjuvant treatment was balanced in both arms. Rates of grade 3 or 4 AEs and AEs with outcome of death were similar between the two arms (See Table 6). The overall study period included AEs that occurred between the first dose of study treatment, and whichever occurred first: 1) 90 days after the last dose of treatment, surgery, or last adjuvant visit; 2) date of first dose of subsequent anti-cancer therapy; or 3) data cut-off date.

PD-L1 = PD-L1 (Homo sapiens, UniProt Q9NZQ7); conditions: in vitro; cited from earlier work
xenograft model = conditions: via a T-cell dependent mechanism; cited from earlier work
[4] = ITT, durvalumab arm vs comparator arm
[5] = ITT, of 533 (durvalumab arm) / 530 (comparator arm)
[6] = non-pCR subgroup, durvalumab vs comparator, exploratory post hoc
[7] = pCR subgroup, durvalumab vs comparator, exploratory post hoc
[8] = patients with radical cystectomy and post-RC baseline scan, vs comparator arm
[9] = durvalumab arm vs comparator arm
[10] = Safety Analysis Set, number of patients

Chain of PD-L1 (Q9NZQ7 19-290): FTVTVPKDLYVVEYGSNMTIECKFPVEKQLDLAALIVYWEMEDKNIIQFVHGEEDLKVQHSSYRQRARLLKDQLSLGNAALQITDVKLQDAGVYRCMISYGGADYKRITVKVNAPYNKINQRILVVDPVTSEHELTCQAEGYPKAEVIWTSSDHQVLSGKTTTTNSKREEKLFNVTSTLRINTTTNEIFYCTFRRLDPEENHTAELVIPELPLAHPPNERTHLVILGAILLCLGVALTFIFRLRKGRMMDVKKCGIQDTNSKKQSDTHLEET

Which results are given for “Durvalumab: antibody that selectively binds PD-L1; trial arm: durvalumab+gemcitabine+cisplatin before radical cystectomy, then adjuvant durvalumab monotherapy”?
death from bladder cancer, percent of patients ([1]; ITT): 15.9%; patients with distant metastases or death (MFS events), percent ([1]; ITT): 28.5%; EFS Hazard Ratio (HR) ([1]; ITT population, durvalumab+cisplatin+gemcitabine vs cisplatin+gemcitabine, BICR, DCO April 2024): 0.68; probability of 24-month metastasis-free survival ([1]; ITT, 24 months): 75.1%; disease-specific survival hazard ratio (HR) [1, 4]: 0.69; metastasis-free survival hazard ratio (HR) [1, 4]: 0.67; reduction in risk of death from bladder cancer (disease-specific survival) [1, 4]: 31%; reduction in the relative risk of death from any cause (OS) [1, 4]: 25%; reduction in risk of developing a distant metastasis or dying (metastasis-free survival) ([1]; ITT, durvalumab arm vs comparator arm, greater than 40 month follow-up): 33%; OS hazard ratio (HR) ([1]; ITT, durvalumab arm vs comparator arm, interim analysis): 0.75; death from bladder cancer, number of patients [1, 5]: 85 patients; patients with distant metastases or death (MFS events), number [1, 5]: 152 patients; 24-month probability of disease-free survival ([1]; ITT, under heading Disease Specific Survival, 24 months): 89.2%; 24-month EFS rate ([1]; Non-pCR subgroup): 53%; 24-month OS rate ([1]; Non-pCR subgroup): 74%; DFS HR, non-pCR group ([1]; non-pCR group, vs comparator arm, exploratory post hoc): 0.82; reduction in relative risk tumor growth, tumor spreading, not undergoing surgery or dying ([1]; non-pCR patients): 23%; reduction in the relative risk of dying from any cause ([1]; non-pCR patients): 16%; EFS HR, non-pCR patients [1, 6]: 0.77; OS HR, non-pCR patients [1, 6]: 0.84; DFS HR, pCR group ([1]; pCR group, vs comparator arm, exploratory post hoc): 0.58; 24-month EFS rate ([1]; pCR subgroup): 92%; 24-month OS rate ([1]; pCR subgroup): 96%; EFS HR, patients with pCR [1, 7]: 0.58; OS HR, patients with pCR [1, 7]: 0.72; reduction in the relative risk of dying from any cause ([1]; patients achieving pCR): 28%; reduction in relative risk of tumor growth, tumor spreading, not undergoing surgery or dying ([1]; patients that achieved pCR): 42%; DFS hazard ratio (HR) [1, 8]: 0.69; reduced risk of disease recurrence or death (DFS) [1, 8]: 31%; DFS HR, divergent or other histologic subtypes ([1]; total n=103, vs comparator arm): 0.45; patients with pCR at the time of the radical cystectomy ([2]; ITT): 37.3%; difference in pCR with durvalumab in addition to chemotherapy [2, 9]: ~10%; pCR odds ratio [2, 9]: 1.60; pCR rates among patients that underwent RC ([2]; durvalumab arm=469 patients, comparator arm=441 patients): increased; Anemia (%) ([3]; Safety Analysis Set): (38.7) %; Asthenia (%) ([3]; Safety Analysis Set): (17.5) %; Blood creatinine increased (%) ([3]; Safety Analysis Set): (18.5) %; Constipation (%) ([3]; Safety Analysis Set): (38.7) %; Decreased appetite (%) ([3]; Safety Analysis Set): (26.6) %; Diarrhea (%) ([3]; Safety Analysis Set): (20.6) %; Fatigue (%) ([3]; Safety Analysis Set): (36.0) %; Nausea (%) ([3]; Safety Analysis Set): (53.6) %; Neutropenia (%) ([3]; Safety Analysis Set): (25.8) %; Neutrophil count decreased (%) ([3]; Safety Analysis Set): (15.3) %; Patients with any AE (%) ([3]; Safety Analysis Set): (99.4) %; Pruritis (%) ([3]; Safety Analysis Set): (15.1) %; Pyrexia (%) ([3]; Safety Analysis Set): (20.8) %; Urinary tract infection (%) ([3]; Safety Analysis Set): (30.0) %; Vomiting (%) ([3]; Safety Analysis Set): (19.2) %; Anemia, number [3, 10]: 205; Asthenia, number [3, 10]: 93; Blood creatinine increased, number [3, 10]: 98; Constipation, number [3, 10]: 205; Decreased appetite, number [3, 10]: 141; Diarrhea, number [3, 10]: 109; Fatigue, number [3, 10]: 191; Nausea, number [3, 10]: 284; Neutropenia, number [3, 10]: 137; Neutrophil count decreased, number [3, 10]: 81; Patients with any AE, number [3, 10]: 527; Pruritis, number [3, 10]: 80; Pyrexia, number [3, 10]: 110; Urinary tract infection, number [3, 10]: 159; Vomiting, number [3, 10]: 102; AEs leading to discontinuation of NAC, % ([3]; in vivo): (13.6) %; AEs leading to discontinuation of adjuvant durvalumab, % ([3]; in vivo): (7.8) %; AEs leading to discontinuation of neoadjuvant durvalumab, % ([3]; in vivo): (9.4) %; AEs leading to patient not undergoing RC, % ([3]; in vivo): (1.1) %; additional imAEs: dermatitis/rash, renal events, diarrhea/colitis, pneumonitis (each) ([3]; in vivo): ≤ 2%; imAE hyperthyroid events ([3]; in vivo): 3%; imAE hypothyroid events ([3]; in vivo): 10%; imAEs resolved at data cutoff, number of patients ([3]; of 111 (durvalumab arm) / 16 (comparator arm)): 45 patients; imAEs reported, number of patients ([3]; of 530 (durvalumab arm) / 526 (comparator arm)): 111 patients; imAEs resolved at data cutoff, percent of patients ([3]; of patients with imAEs): 41%; AEs leading to delay in surgery, % ([3]; outside recommended timeframe for RC of 56 days after last dose of NAC): (2.0) %; AEs leading to discontinuation of study treatment, % ([3]; overall study period): (21) %; AEs possibly related to any treatment: Max grade 3 or 4, % ([3]; overall study period): (40.6) %; AEs possibly related to any treatment: Outcome of death, % ([3]; overall study period): (0.6) %; AEs with outcome of death, % ([3]; overall study period): (5.1) %; Any-grade AEs possibly related to any treatment, % ([3]; overall study period): (94.7) %; Any-grade AEs, % ([3]; overall study period): (99.4) %; Any-grade AEs: Max grade 3 or 4, % ([3]; overall study period): (69.4) %; SAEs, % ([3]; overall study period): (61.5) %; imAEs grade 3/4 ([3]; overall study period): 3%; imAEs reported, percent of patients ([3]; overall study period, any grade): 21%; effect on PD-L1-mediated suppression of human T-cell activation (PD-L1): relieve PD-L1-mediated suppression of human T-cell activation; effect on tumor growth in a xenograft model (xenograft model): inhibits tumor growth
